{"source": "patent EP4477673A1", "about": "“IMMUNOCONJUGATE AND USE THEREOF” (priority 2022, dated 2023)", "binders": {"B1": {"name": "A17m0902_hIgG4 (antibody, V domains shown)", "VH": "EVQLVESGGGLVQPGGSLRLSCAASGLTFSDYSMSWYRQAPGKGRELVAIISGSGVITHYVDSVKGRFTISRDNAKNTLYLQMRSLRAEDTAVYYCRAVSDWEDYWGQGTQVTVSS", "notes": "VHH-Fc antibody; not shown: human IgG4 Fc with hinge region and S228P (EU)"}, "B2": {"name": "A-N88D (Fc fusion)", "chain (part 1 of 2)": "B1 VH", "chain (part 2 of 2)": "GGGGSGGGGSGGGGSAPASSSTKKTQLQLEHLLLDLQMILQGISNYKNPKLTRMLTAKFYMPKKATELKHLQCLEEELKPLEEVLQGAQSKNFHLRPRDLISDINVIVLELKGSETTFMCEYADETATIVEFLNRWITFAQSIISTLT", "chain": "B1 VH", "notes": "also called PD-1-IL-2v (N88D); not shown: IgG1 hinge (C220S) + Fc Knob chain (L234A, L235A, S354C, T366W, EU); D356/L358 or E356/M358 ver; IgG1 hinge (C220S) + Fc Hole chain (L234A, L235A, Y349C, T366S, L368A, Y407V; may have H435R, Y436F; EU)"}}, "key": {"human PD-1 [1]": {"biological_target": "T1, human PD-1 (human, UniProt Q15116 25-288)", "T1 sequence (Q15116 25-288 limits assumed)": "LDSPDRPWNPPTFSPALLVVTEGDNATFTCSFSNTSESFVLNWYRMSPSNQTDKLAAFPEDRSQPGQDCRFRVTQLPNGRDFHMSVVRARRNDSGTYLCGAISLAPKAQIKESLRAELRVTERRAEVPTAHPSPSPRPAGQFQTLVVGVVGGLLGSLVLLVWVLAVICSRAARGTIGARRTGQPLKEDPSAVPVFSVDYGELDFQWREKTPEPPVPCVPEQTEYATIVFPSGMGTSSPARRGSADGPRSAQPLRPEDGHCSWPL", "assay": "cell-based or functional assay"}, "[2]": {"biological_target": "T2, Human PD-1 antigen protein (Sino Biological, 10377-H08H) (human, UniProt Q15116 25-167)", "T2 sequence (Q15116 25-167 limits assumed)": "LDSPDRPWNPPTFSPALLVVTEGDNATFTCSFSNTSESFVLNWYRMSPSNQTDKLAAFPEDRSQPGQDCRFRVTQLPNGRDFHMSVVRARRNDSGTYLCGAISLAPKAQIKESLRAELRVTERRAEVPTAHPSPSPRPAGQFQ", "assay": "SPR Biacore 8K, antibody captured by anti-human IgG (Fc), PD-1 as analyte"}, "[3]": {"biological_target": "T3, cynomolgus monkey PD-1 antigen protein (Sino Biological, 90311-C08H) (cynomolgus monkey, UniProt B0LAJ3 25-170)", "T3 construct": "not shown: Tag of the vendor's construct (Sino Biological 90311-C08H, probably a C-terminal His tag)", "T3 sequence (B0LAJ3 entry or part of it C08H C08H limits assumed, form in doubt)": "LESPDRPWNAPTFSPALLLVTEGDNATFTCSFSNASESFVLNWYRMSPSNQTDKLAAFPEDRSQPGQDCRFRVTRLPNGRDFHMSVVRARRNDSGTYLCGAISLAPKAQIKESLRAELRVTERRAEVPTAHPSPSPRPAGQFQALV", "assay": "SPR Biacore 8K, antibody captured by anti-human IgG (Fc), cynomolgus PD-1 as analyte"}, "human PD-1 [4]": {"biological_target": "T1, human PD-1", "assay": "cell-based or functional assay", "remark": "listed apart in the source"}, "IL-2Rβ/γ on M07e cells": {"biological_target": "T4, IL-2Rβ/γ on M07e cells (human, UniProt P14784 27-551; P31785 23-369)", "T4 sequence (looked up) 1": "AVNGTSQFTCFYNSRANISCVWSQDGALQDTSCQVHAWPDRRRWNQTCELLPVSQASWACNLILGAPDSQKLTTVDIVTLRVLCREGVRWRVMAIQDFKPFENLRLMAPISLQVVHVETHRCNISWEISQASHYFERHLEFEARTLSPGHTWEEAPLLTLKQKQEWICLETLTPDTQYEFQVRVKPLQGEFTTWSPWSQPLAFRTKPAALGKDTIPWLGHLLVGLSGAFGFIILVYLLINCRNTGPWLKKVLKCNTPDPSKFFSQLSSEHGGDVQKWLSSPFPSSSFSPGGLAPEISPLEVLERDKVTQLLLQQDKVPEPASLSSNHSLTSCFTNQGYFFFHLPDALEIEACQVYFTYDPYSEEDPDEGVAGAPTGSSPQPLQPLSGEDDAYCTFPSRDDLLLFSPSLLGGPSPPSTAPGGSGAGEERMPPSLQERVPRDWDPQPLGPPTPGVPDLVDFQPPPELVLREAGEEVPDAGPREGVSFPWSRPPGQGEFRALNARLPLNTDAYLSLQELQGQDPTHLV", "T4 sequence (looked up) 2": "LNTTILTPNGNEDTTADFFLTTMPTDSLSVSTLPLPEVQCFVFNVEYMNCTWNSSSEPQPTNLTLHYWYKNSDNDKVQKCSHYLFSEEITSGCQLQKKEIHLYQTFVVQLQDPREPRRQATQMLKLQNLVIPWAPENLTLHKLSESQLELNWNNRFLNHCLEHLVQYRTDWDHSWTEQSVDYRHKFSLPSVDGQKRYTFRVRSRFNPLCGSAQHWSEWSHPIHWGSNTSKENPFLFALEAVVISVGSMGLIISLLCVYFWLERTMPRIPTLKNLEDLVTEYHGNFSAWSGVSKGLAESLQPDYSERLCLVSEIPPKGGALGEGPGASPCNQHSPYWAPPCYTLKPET", "assay": "cell-based or functional assay"}, "human PD-1 [5]": {"biological_target": "T1, human PD-1", "assay": "cell-based or functional assay", "remark": "listed apart in the source"}, "human PD-1 [6]": {"biological_target": "T1, human PD-1", "assay": "cell-based or functional assay", "remark": "listed apart in the source"}, "[7]": {"biological_target": "T5, human IL-2Rβ/γ receptor heterodimer protein (Acrosystem, ILG-H5283) (human, UniProt P14784 27-239; P31785 23-262, limits assumed)", "T5 sequence (looked up) 1": "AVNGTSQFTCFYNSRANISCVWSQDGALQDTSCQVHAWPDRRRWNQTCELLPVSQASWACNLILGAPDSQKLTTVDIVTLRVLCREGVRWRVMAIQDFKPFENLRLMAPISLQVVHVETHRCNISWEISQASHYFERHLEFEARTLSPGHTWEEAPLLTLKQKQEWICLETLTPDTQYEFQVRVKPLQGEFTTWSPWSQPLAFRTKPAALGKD", "T5 sequence (looked up) 2": "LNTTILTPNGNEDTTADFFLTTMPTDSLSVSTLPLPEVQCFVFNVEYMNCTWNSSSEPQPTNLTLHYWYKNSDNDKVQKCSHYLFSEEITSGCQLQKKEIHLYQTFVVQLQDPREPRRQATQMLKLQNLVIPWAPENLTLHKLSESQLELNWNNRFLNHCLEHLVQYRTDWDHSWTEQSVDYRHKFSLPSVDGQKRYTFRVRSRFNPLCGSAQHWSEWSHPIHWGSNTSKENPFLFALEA", "assay": "SPR Biacore 8K; affinity for human IL-2Rβ/γ against A-PC"}, "[8]": {"biological_target": "T6, human IL-2Rα receptor protein (Sino Biological, 10165-H08H) (human, UniProt P01589 22-213)", "T6 construct": "also called CD25", "T6 sequence (looked up)": "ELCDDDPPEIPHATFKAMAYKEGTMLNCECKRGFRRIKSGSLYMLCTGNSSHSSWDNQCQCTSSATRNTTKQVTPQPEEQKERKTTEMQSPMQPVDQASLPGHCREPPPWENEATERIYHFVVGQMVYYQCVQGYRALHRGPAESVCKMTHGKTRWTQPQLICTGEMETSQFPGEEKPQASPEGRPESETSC", "assay": "SPR Biacore 8K, fusion protein captured by anti-human IgG (Fc), IL-2Rα as analyte"}, "[9]": {"biological_target": "T2, Human PD-1 antigen protein (Sino …)", "assay": "SPR Biacore 8K, fusion protein captured by anti-human IgG (Fc), human PD-1 as analyte"}, "[10]": {"biological_target": "T5, human IL-2Rβ/γ receptor heterodimer …", "assay": "SPR Biacore 8K, fusion protein captured by anti-human IgG (Fc), human IL-2Rβ/γ heterodimer as analyte"}}, "note": "Like-named read-outs stand apart in the source and are kept apart here.", "data": [{"binder": "B1", "values": [{"measurement": "IC50, PD-1/PD-L1 NFAT reporter gene system", "setting": "human PD-1 [1]", "value": 0.435, "unit": "nM"}, {"measurement": "Kd", "setting": "[2]", "value": 6.09, "unit": "nM"}, {"measurement": "koff", "setting": "[2]", "value": 0.00177, "unit": "s⁻¹"}, {"measurement": "kon", "setting": "[2]", "value": 291000, "unit": "M⁻¹ s⁻¹"}, {"measurement": "Kd", "setting": "[3]", "value": 3.28, "unit": "nM"}, {"measurement": "koff", "setting": "[3]", "value": 0.00108, "unit": "s⁻¹"}, {"measurement": "kon", "setting": "[3]", "value": 328000, "unit": "M⁻¹ s⁻¹"}]}, {"binder": "B2", "values": [{"measurement": "M07e-hPD-1 cell proliferation activity (%) at 0.0001 nM", "setting": "human PD-1 [4]", "value": 2.8, "unit": "%"}, {"measurement": "M07e-hPD-1 cell proliferation activity (%) at 0.001 nM", "setting": "human PD-1 [4]", "value": 3.3, "unit": "%"}, {"measurement": "M07e-hPD-1 cell proliferation activity (%) at 0.01 nM", "setting": "human PD-1 [4]", "value": 18.1, "unit": "%"}, {"measurement": "M07e-hPD-1 cell proliferation activity (%) at 0.1 nM", "setting": "human PD-1 [4]", "value": 32.1, "unit": "%"}, {"measurement": "M07e-hPD-1 cell proliferation activity (%) at 1 nM", "setting": "human PD-1 [4]", "value": 41.8, "unit": "%"}, {"measurement": "M07e-hPD-1 cell proliferation activity (%) at 10 nM", "setting": "human PD-1 [4]", "value": 45, "unit": "%"}, {"measurement": "M07e-hPD-1 cell proliferation activity (%) at 100 nM", "setting": "human PD-1 [4]", "value": 61.1, "unit": "%"}, {"measurement": "M07e-hPD-1 cell proliferation activity (%) at 1000 nM", "setting": "human PD-1 [4]", "value": 66.9, "unit": "%"}, {"measurement": "M07e cell proliferation activity (%) at 0.46 nM", "setting": "IL-2Rβ/γ on M07e cells", "value": -1.7, "unit": "%"}, {"measurement": "M07e cell proliferation activity (%) at 1.4 nM", "setting": "IL-2Rβ/γ on M07e cells", "value": -1.1, "unit": "%"}, {"measurement": "M07e cell proliferation activity (%) at 4.1 nM", "setting": "IL-2Rβ/γ on M07e cells", "value": -1.5, "unit": "%"}, {"measurement": "M07e cell proliferation activity (%) at 12 nM", "setting": "IL-2Rβ/γ on M07e cells", "value": -1.9, "unit": "%"}, {"measurement": "M07e cell proliferation activity (%) at 37 nM", "setting": "IL-2Rβ/γ on M07e cells", "value": -2.8, "unit": "%"}, {"measurement": "M07e cell proliferation activity (%) at 111 nM", "setting": "IL-2Rβ/γ on M07e cells", "value": -1.8, "unit": "%"}, {"measurement": "M07e cell proliferation activity (%) at 333 nM", "setting": "IL-2Rβ/γ on M07e cells", "value": 0.2, "unit": "%"}, {"measurement": "M07e cell proliferation activity (%) at 1000 nM", "setting": "IL-2Rβ/γ on M07e cells", "value": 14.6, "unit": "%"}, {"measurement": "M07e-hPD-1 cell proliferation ratio (%) at 0.0001 nM", "setting": "human PD-1 [5]", "value": 0.8, "unit": "%"}, {"measurement": "M07e-hPD-1 cell proliferation ratio (%) at 0.001 nM", "setting": "human PD-1 [5]", "value": 0, "unit": "%"}, {"measurement": "M07e-hPD-1 cell proliferation ratio (%) at 0.01 nM", "setting": "human PD-1 [5]", "value": 4.8, "unit": "%"}, {"measurement": "M07e-hPD-1 cell proliferation ratio (%) at 0.1 nM", "setting": "human PD-1 [5]", "value": 18.3, "unit": "%"}, {"measurement": "M07e-hPD-1 cell proliferation ratio (%) at 1 nM", "setting": "human PD-1 [5]", "value": 21.3, "unit": "%"}, {"measurement": "M07e-hPD-1 cell proliferation ratio (%) at 10 nM", "setting": "human PD-1 [5]", "value": 25.2, "unit": "%"}, {"measurement": "M07e-hPD-1 cell proliferation ratio (%) at 100 nM", "setting": "human PD-1 [5]", "value": 31.1, "unit": "%"}, {"measurement": "M07e-hPD-1 cell proliferation ratio (%) at 1000 nM", "setting": "human PD-1 [5]", "value": 45.5, "unit": "%"}, {"measurement": "M07e-hPD-1 cell proliferation ratio (%) at 0.0001 nM", "setting": "human PD-1 [6]", "value": 5.2, "unit": "%"}, {"measurement": "M07e-hPD-1 cell proliferation ratio (%) at 0.001 nM", "setting": "human PD-1 [6]", "value": 4.4, "unit": "%"}, {"measurement": "M07e-hPD-1 cell proliferation ratio (%) at 0.01 nM", "setting": "human PD-1 [6]", "value": 13.4, "unit": "%"}, {"measurement": "M07e-hPD-1 cell proliferation ratio (%) at 0.1 nM", "setting": "human PD-1 [6]", "value": 30.8, "unit": "%"}, {"measurement": "M07e-hPD-1 cell proliferation ratio (%) at 1 nM", "setting": "human PD-1 [6]", "value": 36, "unit": "%"}, {"measurement": "M07e-hPD-1 cell proliferation ratio (%) at 10 nM", "setting": "human PD-1 [6]", "value": 35.5, "unit": "%"}, {"measurement": "M07e-hPD-1 cell proliferation ratio (%) at 100 nM", "setting": "human PD-1 [6]", "value": 41.1, "unit": "%"}, {"measurement": "M07e-hPD-1 cell proliferation ratio (%) at 1000 nM", "setting": "human PD-1 [6]", "value": 55.4, "unit": "%"}, {"measurement": "fold lower affinity than A-PC", "setting": "[7]", "value": "~13", "unit": "fold"}, {"measurement": "binding result", "setting": "[8]", "value": "no binding"}, {"measurement": "Kd", "setting": "[9]", "value": 17.6, "unit": "nM"}, {"measurement": "koff", "setting": "[9]", "value": 0.00175, "unit": "s⁻¹"}, {"measurement": "kon", "setting": "[9]", "value": 99800, "unit": "M⁻¹ s⁻¹"}, {"measurement": "Kd", "setting": "[10]", "value": 3.38, "unit": "nM"}, {"measurement": "koff", "setting": "[10]", "value": 0.000215, "unit": "s⁻¹"}, {"measurement": "kon", "setting": "[10]", "value": 63700, "unit": "M⁻¹ s⁻¹"}]}]}
